{
  "source": "patent US12065466B2",
  "about": "“Methods and compositions for protein sequencing” (Quantum-Si Incorporated, priority 2020, dated 2024)",
  "data": [
    {"system": "amino acid at a terminal position of a polypeptide", "experiment": "not given", "conditions": "Table 2; amino acid identity at a terminal position (phosphotyrosine also internal); inferred from literature and/or demonstrated by the inventors; cited from earlier work", "values": [
      {"molecule": "PS507: UBR-box domain homolog, SEQ ID NO: 135 (protein, listed as Sparassis crispa) MPCGHIFKKGESCFRCKDCALDDSCVLCSKCFEATDHANHNVSFFIAQQSGGCCDCGDIEAWLVPIDCPFHPV", "Binding Pref.": "K, R, H"},
      {"molecule": "PS509: UBR-box domain homolog, SEQ ID NO: 137 (protein, Lottia gigantean) MICGHGFKTGEPTYSCRDCATDPTCVLCISCFQKSPHREHRYKMSASGGGGYCDCGDPEAWKIEPFCEQHKP", "Binding Pref.": "K, R, H"},
      {"molecule": "PS504: UBR-box domain homolog, SEQ ID NO: 132 (protein, listed as Galleria mellonella) MLCGKVFKQGEPAYSCRECGMDNTCVLCVECFKVSPHRHHKYKMGQSGGGGCCDCGDTEAWKRDPFCERHAK", "Binding Pref.": "K, R, H"},
      {"molecule": "PS508: UBR-box domain homolog, SEQ ID NO: 136 (protein, Anabarilius graham) MLCGRVFKEGETVYSCRDCAIDPTCVLCIECFQKSVHKSHRYKMHASAGGGFCDCGDLEAWKTGPCCSQHDP", "Binding Pref.": "K, R, H"},
      {"molecule": "PS512: UBR-box domain homolog, SEQ ID NO: 140 (protein, listed as Mastacembelus armatus) MLCGRVFKEGETVYSCRDCAIDPTCVLCMDCFQDSVHKSHRYKMHASAGGGFCDCGDVEAWKIGPYCSKHDP", "Binding Pref.": "K, R, H"},
      {"molecule": "PS502: UBR-box domain homolog, SEQ ID NO: 130 (protein, listed as Helobdella robusta) MVCLKVFKLGEPTYSCRSVTCGMDPTCVLCVDCFQNSSHKLHKYKMSTSGGGGYCDCGDLEAWKADPLCDLHKL", "Binding Pref.": "K, R, H"},
      {"molecule": "PS513: UBR-box domain homolog, SEQ ID NO: 141 (protein, listed as Pyrenophora seminiperda) MPCGHIFKNGEATYRCKTCTADDTCVLCARCFDASDHEGHQVFVSVSPGNSGCCDCGDDEAWVRPVHCNIHSA", "Binding Pref.": "K, R, H"},
      {"molecule": "PS511: UBR-box domain homolog, SEQ ID NO: 139 (protein, listed as Habropoda laboriosa) MICGKVFKMGEATYSCKECGVDPTCVLCADCFKQSAHRHHKYRMGTSSGGGFCDCGDIEAWKKEPFCNTHLA", "Binding Pref.": "K, R, H"},
      {"molecule": "PS501: UBR-box domain homolog, SEQ ID NO: 129 (protein, listed as Amanita thiersii) MICGQIIGKGESCFRCRDCGLDESCVMCSQCFHATDHINHNVSFFVSQQPGGCCDCGDEEAWKKPMNCPYHPP", "Binding Pref.": "K, R, H"},
      {"molecule": "PS503: UBR-box domain homolog, SEQ ID NO: 131 (protein, listed as Hydra vulgaris) MFCGRLFKVGDPTYTCKDCAADPTCVFCHDCFHQSVHTKHKYKLFASQGRGGYCDCGDKEAWTNDPACNKHKE", "Binding Pref.": "K, R, H"},
      {"molecule": "PS506: UBR-box domain homolog, SEQ ID NO: 134 (protein, listed as Capitella teleta) MLCGKVFKMGELTYSCRDCGTDPTCVLCMDCFQHSAHKKHRYKMAASGGGGYCDCGDREAWKAEPFCDVHKR", "Binding Pref.": "K, R, H"},
      {"molecule": "PS510: UBR-box domain homolog, SEQ ID NO: 138 (protein, listed as Camponotus floridanus) MICGRMFKMGEPTYSCRQCGMDSTCVLCVDCFKQSAHRNHKYKMGTSSGGGCCDCGDTEAWKNEPFCKIHLA", "Binding Pref.": "K, R, H"},
      {"molecule": "Saccharomyces cerevisiae GID10: SEQ ID NO: 125 (protein, listed as Saccharomyces cerevisiae) MTSLNIMGRKFILERAKRNDNIEEIYTSAYVSLPSSTDTRLPHFKAKEEDCDVYEEGTNLVGKNAKYTYRSLGRHLDFLRPGLRFGGSQSSKYTYYTVEVKIDTVNLPLYKDSRSLDPHVTGTFTIKNLTPVLDKVVTLFEGYVINYNQFPLCSLHWPAEETLDPYMAQRESDCSHWKRFGHFGSDNWSLTERNFGQYNHESAEFMNQRYIYLKWKERFLLDDEEQENQMLDDNHHLEGASFEGFYYVCLDQLTGSVEGYYYHPACELFQKLELVPTNCDALNTYSSGFEIA", "Binding Pref.": "P, M, V"}
    ]},
    {"system": "amino acid at a terminal position of a polypeptide", "experiment": "Amino acid binding preference of recognition proteins (Tables 1 and 2)", "conditions": "Table 1, ClpS proteins; amino acid identity at a terminal position of a polypeptide; inferred from literature and/or demonstrated by the inventors", "from_the_text": "It should be appreciated that these sequences and other examples described herein are meant to be non-limiting, and recognition molecules in accordance with the application can include any homologs, variants thereof, or fragments thereof minimally containing domains or subdomains responsible for peptide recognition.", "values": [
      {"molecule": "PS392: ClpS protein, SEQ ID NO: 20 (protein) MSVEIIEKRSTVRKLAPRYRVLLHNDDFNPMEYVVQTLMATVPSLTQPQAVNVMMEAHTNGMGLVIVCALEHAEFYAETLNNHGLGSSIEPDD", "Binding Pref.": "F, Y, W"},
      {"molecule": "PS391: ClpS protein, SEQ ID NO: 19 (protein) MGQTVEKPRVEGPGTGLGGSWRVIVRNDDHNTFDHVARTLARFIPGVSLERGHEIAKVIHTTGRAVVYTGHKEAAEHYWQQLKGAGLTMAPLEQG", "Binding Pref.": "F, Y, W, L"},
      {"molecule": "PS388: ClpS protein, SEQ ID NO: 16 (protein) MVTTLSADVYGMATAPTVAPERSNQVVRKTYPNYKVIVLNDDFNTFQHVAECLMKYIPGMSSDRAWDLTNQVHYEGQAIVWVGPQEPAELYHQQLRRAGLTMAPLEAA", "Binding Pref.": "F, Y, L"},
      {"molecule": "PS389: ClpS protein, SEQ ID NO: 17 (protein) MLNSAAFKAASASPVIAPERSGQVTQKPYPTYKVIVLNDDFNTFQHVHDCLVKYIPGMTSDRAWQLTHQVHNDGQAIVWVGPQEQAELYHQQLSRAGLTMAPIEAA", "Binding Pref.": "F, Y, L"},
      {"molecule": "PS393: ClpS protein, SEQ ID NO: 21 (protein) MSDEDGEDGDENAVGIATRTRTRTKKPTPYRVLLLNDDYTPMEFVVLVLQRFFRMSIEDATRVMLQVHQKGVGVCGVFTYEVAETKVSQVIDFARQNQHPLQCTLEKA", "Binding Pref.": "F, Y, W, L"},
      {"molecule": "PS382: ClpS protein, SEQ ID NO: 15 (protein) MSDSPVIKEIKKDNIKEADEHEKKEREKETSAWKVILYNDDIHNFTYVTDVIVKVVGQISKAKAHTITVEAHSTGQALILSTWKSKAEKYCQELQQNGLTVSIIHESQLKDKQKK", "Binding Pref.": "F, Y, W, L"},
      {"molecule": "Plasmodium falciparum ClpS: ClpS protein, SEQ ID NO: 110 (protein, listed as Plasmodium falciparum) MFKDLKPFFLCIILLLLLIYKCTHSYNIKNKNCPLNFMNSCVRINNVNKNTNISFPKELQKRPSLVYSQKNFNLEKIKKLRNVIKEIKKDNIKEADEHEKKEREKETSAWKVILYNDDIHNFTYVTDVIVKVVGQISKAKAHTITVEAHSTGQALILSTWKSKAEKYCQELQQNGLTVSIIHESQLKDKQKK", "Binding Pref.": "F, W, Y, L"},
      {"molecule": "PS368: ClpS protein, SEQ ID NO: 1 (protein) MASAPSTTLDKSTQVVKKTYPNYKVIVLNDDLNTFDHVANCLIKYIPDMTTDRAWELTNQVHYQGQAIVWTGPQEQAELYHQQLRREGLTMAPLEAA", "Binding Pref.": "F, Y, W, L"},
      {"molecule": "PS378: ClpS protein, SEQ ID NO: 11 (protein, not fully specified; X: residue not identified in the source) MXPQEVEEVSFLESKEHEIVLYNDDVNTFDHVIECLVKICNHNYLQAEQCAYIVHHSGKCGVKTGSLEELIPKCNALLEEGLSAEVI", "Binding Pref.": "F, Y, W, L"},
      {"molecule": "PS390: ClpS protein, SEQ ID NO: 18 (protein) MLSIAAVTEAPSKGVQTADPKTVRKPYPNYKVIVLNDDFNTFQHVSSCLLKYIPGMSEARAWELTNQVHFEGLAVVWVGPQEQAELYYAQLKNAGLTMAPPEPA", "Binding Pref.": "F, Y, L"},
      {"molecule": "PS380: ClpS protein, SEQ ID NO: 13 (protein) MGDIYGESNPEEVSCIDSLSEEGNELILFNDNIHTFEYVIDCLVAICSLSYEQASNCAYIVDRKGLCTVKHGSYDELLIMYHALVEKDLKVEIR", "Binding Pref.": "F, W"},
      {"molecule": "PS394: ClpS protein, SEQ ID NO: 22 (protein) MAERRDTGDDEGTGLGIATKTRSKTKKPTPYRVLMLNDDYTPMEFVVLCLQRFFRMNMEEATRVMLHVHQKGVGVCGVFSYEVAETKVGQVIDFARANQHPLQCTLEKA", "Binding Pref.": "F, Y, W, L"},
      {"molecule": "Escherichia coli ClpS: ClpS protein, SEQ ID NO: 108 (protein, listed as Escherichia coli) MGKTNDWLDFDQLAEEKVRDALKPPSMYKVILVNDDYTPMEFVIDVLQKFFSYDVERATQLMLAVHYQGKAICGVFTAEVAETKVAMVNKYARENEHPLLCTLEKA", "Binding Pref.": "F, W, Y, L"},
      {"molecule": "Escherichia coli ClpS M40A: ClpS protein, SEQ ID NO: 109 (protein, listed as Escherichia coli) MGKTNDWLDFDQLAEEKVRDALKPPSMYKVILVNDDYTPAEFVIDVLQKFFSYDVERATQLMLAVHYQGKAICGVFTAEVAETKVAMVNKYARENEHPLLCTLEKA", "Binding Pref.": "F, W, Y, L"},
      {"molecule": "PS395: ClpS protein, SEQ ID NO: 23 (protein) MTVSQSKTQGAPAAQSATELEYEGLWRVVVLNDPVNLMSYVVLVFKKVFGFDETTARKHMLEVHEQGRSVVWSGMREKAEAYAFTLQQWHLTTVLEQDEVR", "Binding Pref.": "F, Y, W, L"}
    ]}
  ]
}
